# Data from paper PMC9713302, “Simultaneous solving high-resolution structures of various enzymes from human kidney microsomes” (Life Science Alliance, 2022).
# Target: the molecule itself
# Test: cryo-EM structure; single-particle cryo-EM with Build and Retrieve (BaR) on the 100-200 kD SEC peak of raw human kidney microsome lysate; 20 mM Tris-HCl pH 7.5, 100 mM NaCl; 0.6 mg/ml
protein,measurement,value
"betaine-homocysteine methyltransferase (BHMT) (enzyme, human (endogenous in kidney microsomes), UniProt Q93088 1-406, looked up, human BHMT, endogenous in kidney microsomes; Zn2+-free and ligand-free in the structure; also called betaine-homocysteine S-methyltransferase; source: endogenous, human kidney microsomes (bought: SEKISUI XenoTech), lysate enriched by size exclusion chromatography) MPPVGGKKAKKGILERLNAGEIVIGDGGFVFALEKRGYVKAGPWTPEAAVEHPEAVRQLHREFLRAGSNVMQTFTFYASEDKLENRGNYVLEKISGQEVNEAACDIARQVADEGDALVAGGVSQTPSYLSCKSETEVKKVFLQQLEVFMKKNVDFLIAEYFEHVEEAVWAVETLIASGKPVAATMCIGPEGDLHGVPPGECAVRLVKAGASIIGVNCHFDPTISLKTVKLMKEGLEAARLKAHLMSQPLAYHTPDCNKQGFIDLPEFPFGLEPRVATRWDIQKYAREAYNLGVRYIGGCCGFEPYHIRAIAEELAPERGFLPPASEKHGSWGSGLDMHTKPWVRARARKEYWENLRIASGRPYNPSMSKPDGWGVTKGTAELMQQKEATTEQQLKELFEKQKFKSQ",stoichiometry N,4
